According to patent US20250009852A1, “DEPLETING EGFR AND HER2 OVERCOMES RESISTANCE TO EGFR INHIBITORS IN COLORECTAL CANCER” (Health Research, Inc., priority 2021, published 2025):

B1: PEPD^G278D: recombinant and enzymatically inactive mutant of human peptidase D (PEPD), with replacement of glycine 278 by aspartic acid (protein)
chain: AAATGPSFWLGNETLKVPLALFALNRQRLCERLRKNPAVQAGSIVVLQGGEETQRYCTDTGVLFLQESFFHWAFGVTEPGCYGVIDVDTGKSTLFVPRLPASHATWMGKIHSKEHFKEKYAVDDVQYVDEIASVLTSQKPSVLLTLRGVNTDSGSVCREASFDGISKFEVNNTILHPEIVESRVFKTDMELEVLRYTNKISSEAHREVMKAVKVGMKEYGLESLFEHYCYSRGGMRHSSYTCICGSGENSAVLHYGHAGAPNDRTIQNGDMCLFDMDGEYYSVASDITCSFPRNGKFTADQKAVYEAVLLSSRAVMGAMKPGDWWPDIDRLADRIHLEELAHMGILSGSVDAMVQAHLGAVFMPHGLGHFLGIDVHDVGGYPEGVERIDEPGLRSLRTARHLQPGMVLTVEPGIYFIDHLLDEALADPARASFLNREVLQRFRGFGGVRIEEDVVVIDSGIELLTCVPRTVEEIEACMAGCDKAFTPFSGPK
modifications: left off: small tags and cut ends

Tests used:
[1] = Monitoring of mice for signs of adverse effects; format: in vivo; conditions: mice bearing HCT116 or HT29 tumors; aderbasib alone or the combination regimen
Experimental: SCID mice (C.B.17 SCID) were bred by the Laboratory Animal Shared Resource at Roswell Park Comprehensive Cancer Center. Male mice at 7-8 weeks of age were used. All mouse experiments were approved by the Institutional Animal Care and Use Committee at Roswell Park Comprehensive Cancer Center under protocol 1022M. We established subcutaneous tumors by inoculating 1×10^6 HCT116 cells, 4×10^6 HT29 cells, or 2×10^6 SW48 cells to the flank of each mouse in 100 μl of serum free medium. Colon patient-derived xenograft (PDX) 14650 was established from a liver metastatic lesion in a patient treated at Roswell Park Comprehensive Cancer Center. Tumor fragments (˜20 mm^3) from donor mice were implanted into the flank of each mouse subcutaneously using a trocar. […] Subcutaneous tumor volume was measured using length ×width^2÷2. Tumor volume was measured three times each week. Orthotopic tumor growth was monitored by bioluminescence weekly. Mice were given D-luciferin (150 mg/kg) by ip and anesthetized with isoflurane, and tumor burden was measured by bioluminescence using the IVIS Spectrum In Vivo Imaging System (PerkinElmer). Drug treatment was started when significant tumor growth was detected. […] The mice were closely monitored for sign of adverse effects and weighed three times each week. […]

HT29 tumors = assay: Subcutaneous HT29 tumors in SCID mice; format: in vivo, mouse; conditions: sc HT29 tumors
Experimental: SCID mice (C.B.17 SCID) were bred by the Laboratory Animal Shared Resource at Roswell Park Comprehensive Cancer Center. Male mice at 7-8 weeks of age were used. All mouse experiments were approved by the Institutional Animal Care and Use Committee at Roswell Park Comprehensive Cancer Center under protocol 1022M. We established subcutaneous tumors by inoculating 1×10^6 HCT116 cells, 4×10^6 HT29 cells, or 2×10^6 SW48 cells to the flank of each mouse in 100 μl of serum free medium. Colon patient-derived xenograft (PDX) 14650 was established from a liver metastatic lesion in a patient treated at Roswell Park Comprehensive Cancer Center. Tumor fragments (˜20 mm^3) from donor mice were implanted into the flank of each mouse subcutaneously using a trocar. Orthotopic colon tumors in mice were established by inoculating HCT116 cells stably transfected with firefly luciferase (2×10^6 cells in 50 μl of 50% serum-free medium and 50% Matrigel) to the caecum wall of each mouse. Mice in each tumor model were randomized cage-wise into treatment groups using Research Randomizer (www.randomizer.org). Subcutaneous tumor volume was measured using length ×width^2÷2. Tumor volume was measured three times each week. Orthotopic tumor growth was monitored by bioluminescence weekly. Mice were given D-luciferin (150 mg/kg) by ip and anesthetized with isoflurane, and tumor burden was measured by bioluminescence using the IVIS Spectrum In Vivo Imaging System (PerkinElmer). Drug treatment was started when significant tumor growth was detected. EP (0.5 mg/kg) was administered to mice ip once daily. PEPD^G278D (4 mg/kg) was administered to mice ip thrice weekly (Monday, Wednesday, Friday). Aderbasib (60 mg/kg) was administered to mice by gavage once daily. 5-FU (35 mg/kg) was administered to mice ip twice weekly (Monday and Thursday). EP, PEPD^G278D and 5-FU were administered to mice in PBS. Aderbasib was first dissolved in DMSO and then diluted by PBS (final 5% DMSO by volume). […] The mice were closely monitored for sign of adverse effects and weighed three times each week. […]

[2] = tested on: HER3, MET, IGF1R, SRC, AKT, ERK, MEK; assay: Western blotting of whole cell lysates: other RTKs and downstream signaling proteins; format: cell-based, human; conditions: 25 nM, 48 h
Experimental: (§1) To prepare whole cell lysates, cells were washed with PBS twice, mixed with 1× cell lysis buffer from Cell Signaling Technology supplemented with 2 mM PMSF and a protease inhibitor cocktail from Roche Applied Science, placed on ice for 10 min, sonicated at 0-4° C. to enhance cell lysis using a Branson Model 450 sonifier, and finally centrifuged at 13,000 g for 10 min at 4° C., and the supernatant fraction is collected as whole cell lysate. Tumor and samples were mixed with RIPA buffer (25 mM Tris-HCl, PH7.6, 150 mM NaCl, 1% Nonidet P-40, 1% sodium deoxycholate, and 0.1% SDS), which was supplemented with 2 mM PMSF, the protease inhibitor cocktail mentioned above, phosphatase inhibitor cocktail 2 and phosphatase inhibitor cocktail 3 from Sigma-Aldrich at 14.3 μl buffer per mg tissue, and homogenized in a Dounce homogenizer. The homogenates were cleared by centrifugation at 13,000 g for 15 min at 4° C.
Protein concentrations in all samples were measured using the BCA Assay Kit. For Western blotting, each sample was mixed with 4× loading dye, heated for 5 min at 95° C., and resolved by SDS-PAGE (8-12.5%). Proteins were transferred to polyvinylidene fluoride membrane, probed with specific antibodies, and detected using either Luminata Classico (Millipore) or Luminata Cresendo (Millipore). For IP, cell lysates (0.5 mg protein/sample) were incubated with a desired antibody overnight at 4° C., followed by incubation of 500 μl sample with 30 μl G-Sepharose beads (2 mg/ml) for 1 h at RT. The beads were washed three times with IP buffer, suspended in 2× SDS loading buffer, boiled for 5 min, and analyzed by Western blotting.

HRAS, NRAS, KRAS = assay: Western blotting of whole cell lysates: RAS proteins; format: cell-based, human; conditions: 48 h
Experimental: as §1
Protein concentrations in all samples were measured using the BCA Assay Kit. […] Proteins were transferred to polyvinylidene fluoride membrane, probed with specific antibodies, and detected using either Luminata Classico (Millipore) or Luminata Cresendo (Millipore). […] The beads were washed three times with IP buffer, suspended in 2× SDS loading buffer, boiled for 5 min, and analyzed by Western blotting.

PI3K = PI3K activity assay (PI3-Kinase Activity ELISA) in cell lysates; format: cell-based, human; conditions: 25 nM, 48 h
Experimental: PI3K activity was measured using a PI3-Kinase Activity ELISA Kit from Echelon Biosciences, following manufacturer's instruction. Briefly, PI3K was pulled down from whole cell lysates using an antibody for PI3K/p85. Each sample was prepared from approximately 1×10^6 cells. The entire immunoprecipitate from each sample was mixed with 30 μl of KBZ reaction buffer, which was then mixed with 30 μl of 10 μM PI(4,5)P2 substrate and incubated for 2 h at 37° C. The kinase reaction was terminated by adding 90 μl of kinase stop solution to each reaction solution, and 60 μl of each mixture was transferred together with 60 μl of PIP3 detector to a well in the incubation plate. After incubation at RT for 1 h, 100 μl per sample from the incubation plate was transferred to the detection plate and incubated for 1 h at RT. The detection plate was washed with TBST, incubated with the HRP-conjugated secondary detector for 30 min, washed again with TBST, and the immobilized HRP was measured by a standard colorimetric assay, using 3,3′,5,5′-tetramethylbenzedine as a substrate and a Synergy 2 Multi-Mode Microplate Reader to record absorbance.

| Molecule | signs of toxicity [1] | tumor growth (HT29 tumors; aderbasib alone 60 mg/kg by gavage daily) | expression of other signaling proteins (HER3, MET, IGF1R, SRC, AKT, ERK) ([2]; HCT116, HT29 and SW48 cells) | phosphorylation of other signaling proteins (HER3, MET, IGF1R, SRC, AKT, ERK) ([2]; HCT116, HT29 and SW48 cells) | MEK phosphorylation ([2]; HCT116 and HT29 cells) | phosphorylation or expression of HER3, MET, IGF1R, SRC, AKT, and ERK ([2]; SW620 cells that lack EGFR and HER2) | expression of HRAS and NRAS (HRAS, NRAS, KRAS; HCT116, HT29 and SW48 cells, 25 nM) | expression of WT or mutated KRAS (HRAS, NRAS, KRAS; PEPD^G278D 25 nM, cetuximab 275 nM) | tumor growth (HT29 tumors; EP plus PEPD^G278D 4 mg/kg ip three times weekly, or cetuximab 15 mg/kg ip twice weekly) | inhibition of PI3K activity (PI3K; HCT116 cells) [%] | inhibition of PI3K activity (PI3K; HT29 cells) [%] | inhibition of PI3K activity (PI3K; SW48 cells) [%] | inhibition of PI3K activity (PI3K; SW620 cells) |
| --- | --- | --- | --- | --- | --- | --- | --- | --- | --- | --- | --- | --- | --- |
| COC(=O)N1CC2(CC2)C[C@H](C(=O)NO)[C@H]1C(=O)N1CC=C(c2ccccc2)CC1 [aderbasib] | did not show signs of toxicity | ineffective |  |  |  |  |  |  |  |  |  |  |  |
| B1 |  |  | had no effect on the expression | markedly decreased their phosphorylation | markedly decreased MEK phosphorylation | had no effect | strongly downregulates | neither PEPD^G278D nor cetuximab regulated the expression | neither agent inhibited the growth | 74 | 71 | 76 | not in SW620 cells |
